Experimental data: article PMC3565045

Target: Cryptococcus neoformans acetate kinase (Cryptococcus neoformans)
Assay: crystal structure

stoichiometry N: 2
Substance: Cryptococcus neoformans acetate kinase (enzyme)
